These results are taken from publication PMC2853111.

For data set [1], the target named is T1, estrogen receptor alpha (rERα, NR3A1) (UniProt P03372 1-595). As to the kind of experiment: EMSA. (In general: A gel shift assay detects complexes by their altered migration in electrophoresis.)
The target of data set [2] is T1, estrogen receptor alpha (rERα, NR3A1). As to the kind of experiment: EMSA. This is another data set of the same source.

Where two headings read alike, the source gives them in different places.

T1 sequence (P03372 whole entry): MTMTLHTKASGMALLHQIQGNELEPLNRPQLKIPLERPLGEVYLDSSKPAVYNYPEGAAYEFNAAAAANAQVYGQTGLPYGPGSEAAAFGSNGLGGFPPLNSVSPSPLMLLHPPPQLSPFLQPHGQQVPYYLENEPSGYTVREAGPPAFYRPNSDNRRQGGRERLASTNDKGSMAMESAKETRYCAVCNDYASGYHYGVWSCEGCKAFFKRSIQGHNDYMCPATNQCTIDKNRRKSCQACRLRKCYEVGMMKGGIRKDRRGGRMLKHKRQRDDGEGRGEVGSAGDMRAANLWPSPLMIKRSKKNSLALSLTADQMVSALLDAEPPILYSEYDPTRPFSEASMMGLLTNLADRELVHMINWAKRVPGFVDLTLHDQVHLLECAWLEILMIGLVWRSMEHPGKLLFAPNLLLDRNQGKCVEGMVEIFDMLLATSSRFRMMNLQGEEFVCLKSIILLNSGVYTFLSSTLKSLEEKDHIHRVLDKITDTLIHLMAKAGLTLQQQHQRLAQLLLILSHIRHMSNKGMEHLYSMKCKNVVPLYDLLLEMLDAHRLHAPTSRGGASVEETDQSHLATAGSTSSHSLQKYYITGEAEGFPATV

B1: D66 ERE probe (5' ERE, MIRb) (dsDNA)
DNA 1: CACCCAGGTCAGTCTGACATCTAAG
DNA 2: CTTAGATGTCAGACTGACCTGGGTG
Turning to B1, the binding result in data set [1] was “binds”.

B2: consensus ERE probe (ERE-EMSA) (dsDNA)
DNA 1: GGATCTAGGTCACTGTGACCCCGGATC
DNA 2: GATCCGGGGTCACAGTGACCTAGATCC
On to B2, for which the binding result in data set [2] is listed as “binds”.

B3: B68 ERE probe (3' ERE, MIRb) (dsDNA)
DNA 1: TTTCTGGGTCACACCGACCTGAGCT
DNA 2: AGCTCAGGTCGGTGTGACCCAGAAA
As to B3, the binding result in data set [1] is “binds”.
